In this assay the target is gp120 of HIV-1 strain IIIB (HIV-1 IIIB).

B1: murine monoclonal antibody NM-01 (antibody, V domains shown)
VH: QIQLKESGPAVIKPSQSLSLTCIVSGFSITSSSYCWHWIRQPPGKGLEWMGRICYEGSIDYSPSIKSRSTISRDTSLNRFFIQLSSVTNEDTAMYYCSRENHGTTTSMDYWGQGTSVTVSS
VL: DIVLTQSPASLAVSLGQRATISCRASESVDSYGNSFMHWYQQKPGQSPKLLIYVASNLESGVPARFSGSGSRTDFTLTIDPVEADDAATYYCQQNNEDPLTFGAGTKLELK
For B1, the 50% neutralization by the p24 assay turned out to be 0.15 µg/mL and the ID50 (reverse transcriptase assay) came out at 0.2 µg/mL.

For the origin of these results see patent publication US5607847.
